Assay results taken from US20170247475A1 (Boehringer Ingelheim, published 2017).
Substitutions are numbered along the chain they refer to.

Columns and labels:
[1] = target: T1, recombinant mouse VEGF164 (mouse, UniProt Q00731-2 27-190); assay: binding ELISA, coated rmVEGF164
T1 construct: biotinylated in the mVEGFR2 AlphaScreen; also called rmVEGF164; mVEGF164
T1 sequence (looked up): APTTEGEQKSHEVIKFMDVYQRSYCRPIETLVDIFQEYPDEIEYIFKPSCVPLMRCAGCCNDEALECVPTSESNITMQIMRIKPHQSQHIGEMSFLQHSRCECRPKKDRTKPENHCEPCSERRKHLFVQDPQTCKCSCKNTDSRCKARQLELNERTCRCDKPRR
Method: Cross-reactivity to mouse VEGF164 is determined using a binding ELISA. […] Wells are blocked with a casein solution (1% in PBS). […] A mouse VEGF164 reactive mAb is included as positive control.

[2] = target: T2, recombinant human VEGF165 (human, UniProt P15692-4 27-191); assay: kd1; SPR Biacore T100, hVEGF165 on chip, Two State Reaction model
T2 construct: also called hVEGF165; rhVEGF165
Method: (§1) Samples are injected for 2 min and allowed to dissociate up to 20 min at a flow rate of 45 μI/min. In between sample injections, the chip surface is regenerated with 100 mM HCl. HBS-EP+(Hepes buffer pH7.4+EDTA) is used as running buffer. Binding curves are fitted using a Two State Reaction model by Biacore T100 Evaluation Software v2.0.1.
^{(a)}Heterogeneous binding curve resulting in no 1:1 fit, curves are fitted using a Two State Reaction model by Biacore T100 Evaluation Software v2.0.1

VEGF [3] = assay: cell-based or functional assay
[4] = target: T2, recombinant human VEGF165; assay: hVEGF165/hVEGFR2-Fc competition AlphaScreen
Method: (§2) Finally, streptavidin donor beads (20 μg/ml) are added and after 1 hour of incubation in the dark, fluorescence is measured on the Envision microplate reader.
Target sequence in this assay (P15692 other isoform, or with tags, fused parts or gaps limits assumed): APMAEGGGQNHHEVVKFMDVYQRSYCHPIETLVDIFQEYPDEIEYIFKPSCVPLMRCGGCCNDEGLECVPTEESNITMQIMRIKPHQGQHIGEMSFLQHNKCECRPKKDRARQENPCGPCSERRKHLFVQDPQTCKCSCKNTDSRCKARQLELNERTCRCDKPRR

[5] = target: T2, recombinant human VEGF165; assay: VEGF165/VEGFR2 blocking AlphaScreen
Target sequence in this assay (P15692 other isoform, or with tags, fused parts or gaps limits assumed): as above

[6] = target: T2, recombinant human VEGF165; assay: VEGF165/VEGFR2 AlphaScreen
Target sequence in this assay (P15692 other isoform, or with tags, fused parts or gaps limits assumed): as above

[7] = target: T2, recombinant human VEGF165; assay: hVEGF165/hVEGFR1-Fc competition AlphaScreen
Method: as §2
Target sequence in this assay (P15692 other isoform, or with tags, fused parts or gaps limits assumed): as above

VEGF [8] = assay: cell-based or functional assay; remark: listed apart in the source
[9] = target: T2, recombinant human VEGF165; assay: hVEGF165/hVEGFR1-Fc competition ELISA
Target sequence in this assay (P15692 other isoform, or with tags, fused parts or gaps limits assumed): as above

[10] = target: T2, recombinant human VEGF165; assay: Biacore on VEGF165 (Example 5.5)
Method: as §1
Target sequence in this assay (P15692 other isoform, or with tags, fused parts or gaps limits assumed): as above

[11] = target: T2, recombinant human VEGF165; assay: binding ELISA, coated rhVEGF165
[12] = target: T3, recombinant human VEGF121 (human, UniProt P15692-9 27-147); assay: binding ELISA, coated rhVEGF121
T3 construct: also called rhVEGF121; hVEGF121
T3 sequence (looked up): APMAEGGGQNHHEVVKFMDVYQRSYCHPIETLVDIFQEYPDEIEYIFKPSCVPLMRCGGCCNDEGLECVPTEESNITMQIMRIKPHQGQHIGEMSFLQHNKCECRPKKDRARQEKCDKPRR
Method: Binding to recombinant human VEGF121 is assessed via a solid phase binding ELISA. Briefly, recombinant human VEGF121 (R&D Systems, Minneapolis, Minn., USA) is coated overnight at 4° C. at 1 μg/mL in a 96-well MaxiSorp plate (Nunc, Wiesbaden, Germany). Wells are blocked with a casein solution (1% in PBS).

[13] = target: T2, recombinant human VEGF165; assay: AlphaScreen competition, 0.05 nM hVEGF165 and 0.05 nM hVEGFR2-Fc; blocked: hVEGFR2-Fc
[14] = target: T2, recombinant human VEGF165; assay: as above; remark: listed apart in the source
[15] = target: T2, recombinant human VEGF165; assay: AlphaScreen competition, 0.05 nM hVEGF165 and 0.05 nM hVEGFR1-Fc; blocked: hVEGFR1-Fc
[16] = target: T2, recombinant human VEGF165; assay: AlphaScreen competition, 0.05 nM hVEGF165 and 0.05 nM hVEGFR2-Fc; blocked: hVEGFR2-Fc; remark: listed apart in the source
[17] = target: T2, recombinant human VEGF165; assay: as above; remark: listed apart in the source
[18] = target: T2, recombinant human VEGF165; assay: competition AlphaScreen, blocking of hVEGF165 binding to hVEGFR2-Fc
[19] = target: T2, recombinant human VEGF165; assay: AlphaScreen competition, 0.05 nM hVEGF165 and 0.05 nM hVEGFR2-Fc; blocked: hVEGFR2-Fc; remark: listed apart in the source
[20] = target: T2, recombinant human VEGF165; assay: AlphaScreen competition, 0.05 nM hVEGF165 and 0.05 nM hVEGFR1-Fc; blocked: hVEGFR1-Fc; remark: listed apart in the source

B1: VEGFBII23B04 (VHH)
VHH: EVQLVESGGGLVQTGDSLRLSCEVSGRTFSSYSMGWFRQAQGKEREFVVAISKGGYKYDSVSLEGRFTISKDNAKNTVYLQINSLKPEDTAVYYCASSRAYGSSRLRLADTYEYWGQGTQVTVSS
notes: also called VEGFBII23B4; VEGFBII23B04 (wt)
Question: Does B1 bind [1]?
Answer: no binding (tested: 500 nM-32 pM)

Question: What about the koff [2] of the same binder?
Answer: 0.0086 s⁻¹

Question: And the “IC50 (nM), VEGF HUVEC Erk phosphorylation assay” value (VEGF [3])?
Answer: 0.37 nM

Question: What about the “% inhibition” value [4] of the same binder?
Answer: 100%

Question: And the IC50 [4]?
Answer: 0.16 nM

Question: What about the “% inhibition” value [5] of the same binder?
Answer: 100%

Question: What about the IC50 [5] of the same binder?
Answer: 0.152 nM

Question: What about the “% inhibition” value [6] of the same binder?
Answer: 100%

Question: What about the IC50 [6] of the same binder?
Answer: 0.169 nM

Question: And the “% inhibition” value [7]?
Answer: 41%

Question: What about the IC50 [7] of the same binder?
Answer: 0.9 nM

Question: What about the “% inhibition, VEGF HUVEC proliferation assay” value (VEGF [8]) of the same binder?
Answer: 92%

Question: And the “IC50 (nM), VEGF HUVEC proliferation assay” value (VEGF [8])?
Answer: 0.68 nM

Question: And the “% inhibition” value [9]?
Answer: 64%

Question: What about the IC50 [9] of the same binder?
Answer: 0.5 nM

Question: What about the Kd [10] of the same binder?
Answer: 0.56 nM

Question: And the EC50 [11]?
Answer: 0.297 nM

Question: And the EC50 [12]?
Answer: 0.51 nM

B2: VEGFBII038 (VHH)
VHH: B1 VHH with E1D, T14P, D16G, E23A, V24A, Q41P, S60A, K71R, K86R, Q120L
notes: also called VEGFBII0038; VEGFBII00038
Question: Which “IC50 (read off the curve)” value [13] does the source give for B2 here?
Answer: ~0.5 nM

Question: And the “IC50 (read off the curve)” value [14]?
Answer: ~0.2 nM

Question: What about the “% inhibition” value [5] of the same binder?
Answer: 100%

Question: What about the IC50 [5] of the same binder?
Answer: 0.143 nM

Question: What about the “% inhibition, VEGF HUVEC proliferation assay” value (VEGF [8]) of the same binder?
Answer: 92%

Question: What about the “IC50 (nM), VEGF HUVEC proliferation assay” value (VEGF [8]) of the same binder?
Answer: 0.6 nM

Question: What about the “IC50 (read off the curve)” value [15] of the same binder?
Answer: ~0.5 nM

Question: What about the Kd [10] of the same binder?
Answer: 0.36 nM

Question: And the “IC50 (read off the curve)” value [16]?
Answer: ~0.4 nM

Question: What about the “IC50 (read off the curve)” value [17] of the same binder?
Answer: ~0.4 nM

Question: What about the “IC50 (read off the curve)” value [18] of the same binder?
Answer: ~0.4 nM

Question: What about the “IC50 (read off the curve)” value [19] of the same binder?
Answer: ~0.4 nM

Question: What about the “IC50 (read off the curve)” value [20] of the same binder?
Answer: ~0.5 nM
